Measured values as given in patent US20260092093A1 (TJ BIOPHARMA SHANGHAI, published 2026).
Residue numbers refer to the chain shown, from its start.

B1: IL-18 variant polypeptide M18 (ligand)
chain: YFPKLRSKLSVIRNLNDQVLFIDQGNRPLFEDMTDSDCRDNAPRTIFIISMYKSSRRRGMAVTISVKCEKISTLSCENKIISFKEMNPPDGIKDTKSDIIFFQSSVPGHDNKMQFESSSYEGYFLACEKERDLFKLILKKEDELGDRSIMFTVQNED
B2: IL-18 variant polypeptide M19 (ligand)
chain: B1 chain with R6K, S54H, R56E, R57Q, G91A, S104R
B3: IL-18 variant polypeptide M20 (ligand)
chain: B1 chain with R57S
B4: IL-18 variant polypeptide M21 (ligand)
chain: B1 chain with R56S, R57T
B5: IL-18 variant polypeptide M22 (ligand)
chain: B1 chain with S54Y, R57G, G91K
B6: IL-18 variant polypeptide M23 (ligand)
chain: B1 chain with S54Y, R56T, G91N, S104R
B7: IL-18 variant polypeptide M24 (ligand)
chain: B1 chain with S54Y, R56T, R57S, G91N, S104R
B8: IL-18 variant polypeptide M25 (ligand)
chain: B1 chain with S54L, R56T, R57T, G91R, S104R
B9: IL-18 variant polypeptide M26 (ligand)
chain: B1 chain with S54H, R56D, R57K, G91V, S104Y
B10: IL-18 variant polypeptide M27 (ligand)
chain: B1 chain with S54H, R56Y, R57T, G91V, S104Y
B11: IL-18 variant polypeptide M28 (ligand)
chain: B1 chain with R6A, S54W, R56G, R57G, G91V, S104Y
B12: IL-18 variant polypeptide M29 (ligand)
chain: B1 chain with R6M, S54F, R56D, G91P, S104R
B13: IL-18 variant polypeptide M30 (ligand)
chain: B1 chain with R6L, S54H, R56T, R57V, G91S, S104R
B14: IL-18 variant polypeptide M31 (ligand)
chain: B1 chain with S54H, R56I, R57H, G91I, S104Y

What was measured:
[1] = biological target: T1, hIL-18Rα ECD-Fc fusion protein (human, UniProt Q13478 22-329); experiment: BLI (Octet RED96), hIL-18Rα ECD-Fc on Protein A sensor
T1 construct: extracellular domain; captured on Protein A sensor
T1 sequence (looked up): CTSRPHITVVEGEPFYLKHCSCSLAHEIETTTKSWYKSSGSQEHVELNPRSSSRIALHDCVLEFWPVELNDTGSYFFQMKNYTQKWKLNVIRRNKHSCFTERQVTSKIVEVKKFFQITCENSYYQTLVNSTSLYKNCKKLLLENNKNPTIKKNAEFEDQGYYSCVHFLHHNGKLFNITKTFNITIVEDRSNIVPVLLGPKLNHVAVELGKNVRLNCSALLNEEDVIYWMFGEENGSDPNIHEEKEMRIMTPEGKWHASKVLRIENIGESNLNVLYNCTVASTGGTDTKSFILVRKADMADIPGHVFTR
Experimental: The affinities of IL-18 variant polypeptides for hIL-18Rα were assessed by Biolayer Interferometry (BLI) on Octet RED96 using Protein A sensor coated with hIL-18Rα ECD-Fc fusion protein, and WT hIL-18 was used as a control.

[2] = biological target: T2, recombinant hIL-18Rα extracellular domain (human, UniProt Q13478 22-329, biotin label (selection) or fluorescent probe (single-clone FACS), sites not given); experiment: single-clone FACS, yeast display, 10 nM labelled hIL-18Rα ECD
T2 construct: extracellular domain; also called hIL-18Rα ECD; hIL-18Rα-ECD
T2 sequence (looked up): T1 sequence (looked up)
Procedure, shortened: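 Yeast clones displaying IL-18 variants (screening rounds 4 and 5), at equal density, incubated with 10 nM fluorescently labelled hIL-18Rα ECD, then washed. Fraction of fluorescence-positive binding cells per clone measured by flow cytometry.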

Binder	Kd [1] [nM]	Response (nm) [1] [nm]	koff [1] [s⁻¹]	kon [1] [M⁻¹ s⁻¹]	% of fluorescence positive cells [2] [%]
B1	33.1	0.173	0.0134	404000	80.9
B2	112	0.025	0.0554	495000	90
B3	35.1	0.136	0.0167	476000	86.2
B4	64.9	0.0791	0.0221	340000	89.9
B5	4080	0.0592	0.0398	9740	4.83
B6	368	0.0522	0.0302	82300	2.36
B7	930	0.0434	0.0451	48500	1.36
B8	44.1	0.0798	0.0256	581000	1.41
B9	57.1	0.0917	0.0119	207000	96.7
B10	45.9	0.0836	0.00756	165000	77.7
B11	30.4	0.178	0.00966	318000	83.4
B12	83.9	0.0323	0.0612	730000	0.18
B13	30.2	0.0275	0.0389	1.29e+06	0.46
B14	54.1	0.0947	0.0189	349000	69
